From a protein production outcome set (Wang et al. 2014)

Assay: label from the status in PepcDB records

Sequence | protein production
MIILRRLSKEKHHQVNPLWHIYRKIKFVKVLKQTLIIEIARFVPSMKLKNKIYKKLLKMDVGNHTSFAYKVLPDLFYPEYISVGKNTVIGYNTTILTHEVLVDEWRVGKVIIGDYTLIGANTTILPGITIGNHVKIGAGTVVSKDVPDYSFAFGNPMQIQLDSGGDNEWHKKKITSFQ | failed
MASESSIDEKKKKAQVTQSNINKNTPQQLTDKDLFGNETTLAVSEEDIQAALDGDEFRVPLNSPVILVQSGNRAPETIMQEEMRKYYTVSTFSGIPDRQKPLTCNKNKDKNENEDVASAENMNWMQALRFVAAKGHQKAIIVYQDMLQTGKYDSALKSTVWSDYKNDKLTDAISLRYLVRFTLVDVATGEWATWSPVNYEYKVLPPLPDKNEASTTDMTEQQIMQLKQKTYKAMVKDLVNRYQLEHHHHHH | failed
MKIGIIGATGRAGSRILEEAKNRGHEVTAIVRNAGKITQTHKDINILQKDIFDLTLSDLSDQNVVVDAYGVSPDEAEKHVTSLDHLISVLNGTVSPRLLVVGGAASLQIDEDGNTLLESKGLREAPYYPTARAQAKQLEHLRSHQAEFSWTYISPSAMFEPGERTGDYQIGKDHLLFGSDGNSFISMEDYAIAVLDEIERPNHLNERFTVAGK | failed
GNSKSRNDRTETVDKEVIKAPEFDADSAYQYIQVQADFGPRVPNTQAHKECGEYLAGQLEKFGAKVYNQYADLIAYDGTILKSRNIIGAYKPESKKRILLCAHWDSRPYADNDPDPKNHHTPILGVNDGASGVGVLLEIARQIQKEQPALGIDIVFFDSEDYGIPEFYDGKYKQDTWCLGSQYWARTPHVQNYNARYGILLDMVGGKDATFYYEGYSARTARSEMKKIWKKAHELGYGKYFVKEDGGETVDDHIYVNKLARIPCVDIINYDAGNPQSSFGSFWHTVNDTMENIDRNTLKAVGQTVMDVIYNEK | not failed
MLTTFLATVIGWYLVIVSLFLLFHNEHAKSAMAEIIAHRGSQLIMAIVTLITGLLLVVSHNIWVMGWPVVITLFAWLVLLGGLIRFLCPDTAVRIGQSFVDNPMRLKIAAVIFFIIGLFLLFNVYYVYLK | failed
MWNATPSEEPGFNLTLADLDWDASPGNDSLGDELLQLFPAPLLAGVTATCVALFVVGIAGNLLTMLVVSRFRELRTTTNLYLSSMAFSDLLIFLCMPLDLVRLWQYRPWNFGDLLCKLFQFVSESCTYATVLTITALSVERYFAICFPLRAKVVVTKGRVKLVIFVIWAVAFCSAGPIFVLVGVEHENGTDPWDTNECRPTEFAVRSGLLTVMVWVSSIFFFLPVFCLTVLYSLIGRKLWRRRRGDAVVGASLRDQNHKQTVKMLAVVVFAFILCWLPFHVGRYLFSKSFEPGSLEIAQISQYCNLVSFVLFYLSAAINPILYNIMSKKYRVAVFRLLGFEPFSQRKLSTLKDESSRAWTESSINT | failed
MMTKFWNDRYKSDEYFYGEEPNTFIKEQAFRLANHNKVIAFAEGEGRNAVFLARQGNEVTAIDYSEDGLEKTKKLAEKHNVNVHTKKVDLLADSLPENEYDAAIMVFGHFHDDYKKMILGKMIQTIKPGGLIMFEVYSKKQINYGTGGPKDVDMLYDPIDILTWCEEHKVIHFFNGEQERIEGKGHTGLADVIQVVIRK | failed
MLAAGMSRRMGFNKLLAPLCGKRVLWHVLELVARFEGVLEGAVVVTSGEVADVLRRERPPGRRGLFRVVVNREQWRGLSHSIRLGVEASPGARAYLFFNGDRPFVSKHTVARVLALYMARRPLIAAPMAGGAIAPPVVVDSRLRGELLRLSGDTGVRSLFGKYRDSLAVVEVDDPGLHLDVDTPEDLERASKMCSQLGGGPREKPLEHHHHHH | failed
MMRVKFNGKELDTDFKTSLEFFENISKNENDVWIINGFATKENIALNENDELFCIEKNTLPPKDALDAMMRARHTPKLHDKLKNGRVAVCGLGGLGSHIAINLARSGVGYLKLIDFDVIEPSNLNRQAYRVSDLGKFKTEALKEQISEINPYISVEICTLKIDEDNLESLFKDIDIVCEAFDSAIAKAMIAQNFHRFYKDGILICASGLAGYGDSNSIQTRKIAKNFYVCGDLVNGAKLGNGLMAPRVNICAGHQSNLVLELLANKELEHHHHHH | not failed
MACFSGTVYLVACRFRSRGNSMPYKISQYVLDDATPDDSGIVQGDMDVFIHQLMTLMEASQQGYALFDGNDELRFANSAFRAALGIGRHEFPSWVDMMRSGYRTTTGTSIETSDFELWLRSAKTRRGKLPFRTIETSLKDGRWMLTTETTLPGGWMLCVITDVSELGIELRDLRQERDRALKSALSDELTGLGNRRYAMDTLNHLLGPNKAQALAVIIMDIDHFKSVNDRFGHAYGDLVLKDFAARLSATAGRDDLLGRIGGEEFLLVLSGSRMHSADSLMRQLLSSLAQASPLGDRPDFRYSCSAGIAYANPGESASEVLRHADTALYEAKNTGRNRYVIYATVP | failed
